Reference: US20240376189A1 (University of Pennsylvania, published 2024)
Substitutions are numbered along the chain they refer to. Numbers in names are those of the source.

T1: human C5a (human, UniProt P01031 678-751, biotinylated in the U937/C5aR ligand blocking assay (site not stated))
T1 construct: also called human antigen; huC5a
T1 sequence: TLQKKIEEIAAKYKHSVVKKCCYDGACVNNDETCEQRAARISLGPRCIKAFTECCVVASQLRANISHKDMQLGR

B1: E54H (humanized anti-C5a IgG4 antibody) (antibody, V domains shown)
VH: QVQLVQSGAEVKKPGSSVKVSCKASGYTHTDHIIHWMRQAPGQGLEWMGYIYPRHGWTNYNENFKGRVTITADKSTSTAYMELSSLRSEDTAVYYCARERNLEYFDYWGQGTTVTVSS
VL: DIVLTQSPASLAVSPGQRATITCKASQSVDYEGFNYMNWYQQKPGQPPKLLIYAASNLDSGVPARFSGSGSGTDFTLTINPVEAEDTANYYCQQSNEDPHTFGGGTKVEIKR
notes: Carries F29H and E54H in VH and Y96H in VL (Kabat) relative to 16D10
B2: 16D10 (humanized anti-C5a IgG4 antibody) (antibody, V domains shown)
VH: B1 VH with H29F, H55E
VL: B1 VL with H100Y
notes: also called WT (16D10); WT
B3: N92H (humanized anti-C5a IgG4 antibody) (antibody, V domains shown)
VH: B1 VH with H55E
VL: B1 VL with N96H
notes: Carries F29H in VH and N92H and Y96H in VL (Kabat); also called N92H antibody
B4: N97H (humanized anti-C5a IgG4 antibody) (antibody, V domains shown)
VH: B1 VH with H55E, N101H
VL: B1 VL
notes: Carries F29H and N97H in VH and Y96H in VL (Kabat)
B5: NM2 (scFv, V domains shown)
VH: B1 VH with H29F, H55E, W57N
VL: DIVLTQSPASLAVSPGQRATITCKASQSVDYEGDNYMNWYQQKPGQPPKLLIYAASNLDSGVPARFSGSGSGTDFTLTINPVEAEDTANYYCQQSNEDPHTFGGGTKVEIK
notes: scFv expressed in E. coli BL21 (periplasmic extract)

Tests used:
human C5a [1] = target: T1, human C5a; assay: ligand blocking, flow cytometry: antibody titrated against 20 nM biotinylated human C5a binding to U937/C5aR cells, Experiment #2
Experimental: (§1) U937/C5aR cells were washed twice by PBS and suspended in assay buffer (PBS+0.1% BSA) at the density of 3×10⁶ cells/ml. […] 1000 rpm centrifuge for 3-5 min at 4° C., remove supernatant and cells were washed by pre-cold PBS twice. Add 100 μl FITC conjugated streptavidin (eBioscience) to cells and incubate on ice for another 30 min. Centrifuge at 4° C., remove supernatant and cells were washed by pre-cold PBS twice. Add 150 μl 0.5% PFA to suspend cells and detect the signal by FACS (Beckman, Cytoflex). IC₅₀ value was calculated by GraphPad Prism software.
(§2) Mean fluorescence intensities were measured at each antibody concentration. U937 cells without addition of antibodies was used as the low control.

human C5 [2] = target: T2, human C5 (human, UniProt P01031 19-673; P01031 678-1676, limits assumed); assay: BLI (Gator), percentage dissociation from human C5 at pH 5.8 over pH 7.4
T2 construct: In the sheep RBC lysis assay, C5 is the C5 of normal human serum; also called huC5
Experimental: (§3) pH dependency of the humanized anti-C5a constructs were tested using C5 binding assays. A Biolayer interferometry instrument, Gator™ (Probe life Inc., USA) was used to determine pH dependent dissociation of histidine mutants and the benchmark antibodies. Briefly, anti-human IgG Fc (FHC) Probes were equilibrated in the kinetic (K) buffer of Phosphate-buffered saline containing 0.02% bovine serum albumin and 0.002% Tween20 pH 7.4. Antibodies were captured onto the sensors by dipping them into 200 μL of transfection supernatant for 600 s at pH 7.4. The biosensors were then incubated with human C5 prepared in the K buffer pH 7.4 (40 nM) for 600s followed by 600-second dissociation period in K Buffer, pH 7.4 or pH 5.8. The data were processed and analyzed by the Gator evaluation software.

human C5 [3] = target: T2, human C5; assay: ELISA, antibody titrated on C5-coated plate
From the text: The anti-C5a constructs were further tested for their affinities to human C5 using ELISA. Off-target C5 binding reduces availability of anti-C5a antibodies (C5-mediated “sink effect”). […] Each data point was the mean of 2 replicates.

human C5 [4] = target: T2, human C5; assay: BLI (Gator), antibody on anti-human IgG Fc probes, 40 nM human C5 bound 600 s at pH 7.4, 600 s dissociation at pH 5.8
Experimental: as §3

human C5a [5] = target: T1, human C5a; assay: cell-based or functional assay
human C5 [6] = target: T2, human C5; assay: ELISA, affinity for human C5 against affinity for human C5a
human C5a [7] = target: T1, human C5a; assay: ligand blocking, flow cytometry: antibody titrated against 20 nM biotinylated human C5a binding to U937/C5aR cells, Experiment #1
Experimental: as §1, §2

human C5a [8] = target: T1, human C5a; assay: cell-based or functional assay; remark: listed apart in the source
human C5 [9] = target: T2, human C5; assay: BLI (Gator), antibody on anti-human IgG Fc probes, 40 nM human C5 bound 600 s at pH 7.4, 600 s dissociation at pH 7.4
Experimental: as §3

human C5a [10] = target: T1, human C5a; assay: ELISA, antibody titrated on C5a-coated plate
cynomolgus antigen [11] = target: T3, cynomolgus antigen (cynomolgus); assay: SPR, scFv captured, cynomolgus antigen as analyte
T3 construct: also called cyno antigen; cynomolgus monkey C5a

cynomolgus antigen [12] = target: T3, cynomolgus antigen; assay: SPR, scFv captured via anti-c-myc/anti-His, 60 nM cynomolgus antigen as analyte, 1:1 fit
Experimental: The activator was prepared by mixing 400 mM EDC (1-ethyl-3-(3-dimethylaminopropyl) carbodiimide) and 100 mM NHS (N-hydroxysuccinimide) (GE) immediately prior to injection. The CMS sensor chip was activated for 600 s with the mixture at a flow rate of 10 μL/min. Mixture of anti-c-myc and anti his antibodies in 10 mM NaAc (pH 4.5) was then injected to Fc1 and Fc2 of channel 1 to channel 8 for 600 seconds at a flow rate of 10 μL/min. The chip was deactivated by 1 M ethanolamine-HCl (GE) at a flow rate of 10 μL/min for 420 seconds.
The anti-C5a scFv was diluted to 0.5 μg/ml, the other samples were diluted to 2 μg/ml in running buffer 1×HBS-EP+ (0.01 M HEPES, 0.15 M NaCl, 0.003 M EDTA, 0.05% surfactant P20). […] Diluted TES buffer was injected into channel Fc1 at a flow rate of 10 μL/min for 40 s, diluted scFv was injected into channel Fc2 at a flow rate of 10 μL/min for 40 s. […] 10 mM glycine pH 1.5 as regeneration buffer was injected following every dissociation phase. The chip was regenerated with 10 mM glycine pH 1.5.
The sensorgrams for reference channel Fc1 and buffer channel were subtracted from the test sensorgrams. Data were fitted by 1:1 kinetic binding model. Molecular weight of 8.4 kDa was used to calculate the molar concentration of the cyno antigen.

human C5a [13] = target: T1, human C5a; assay: SPR, scFv captured via anti-c-myc/anti-His, 5 nM human antigen as analyte, 1:1 fit

Binder	IC50 (human C5a [1])	Ratio between dissociation at pH 5.8 and 7.4 (human C5 [2])	affinity determined by ELISA, huC5 (human C5 [3])	Dissociation pH 5.8 (%) (human C5 [4])	Inhibition of calcium influx IC50 (nM), FLIPR, Experiment #1 (human C5a [5])	Inhibition of calcium influx IC50 (nM), FLIPR, Experiment #2 (human C5a [5])	Fold affinity (C5/C5a) (human C5 [6])	IC50 (human C5a [7])	Inhibition of cell migration IC50 (nM), U937-C5aR cells (human C5a [8])	Dissociation pH 7.4 (%) (human C5 [9])	affinity determined by ELISA, huC5a (human C5a [10])	Kd (cynomolgus antigen [11])	koff (cynomolgus antigen [11])	kon (cynomolgus antigen [11])	koff (cynomolgus antigen [12])	koff (human C5a [13])
B1	6.53 nM	11.3	0.0601 nM	60.8%	0.136 nM	0.154 nM	5.6 fold	2.57 nM	0.076 nM	5.39%	0.336 nM	–	–	–	–	–
B2	5.9 nM	-2.09	0.0288 nM	-2.42%	0.106 nM	0.135 nM	9.3 fold	2.03 nM	0.061 nM	1.16%	0.269 nM	–	–	–	–	–
B3	6.23 nM	6.54	0.12 nM	54.2%	0.078 nM	0.145 nM	3.9 fold	3.68 nM	0.099 nM	8.29%	0.468 nM	–	–	–	–	–
B4	5.96 nM	10.9	0.0682 nM	49%	0.072 nM	0.138 nM	6 fold	4.71 nM	0.07 nM	4.49%	0.408 nM	–	–	–	–	–
B5	–	–	–	–	–	–	–	–	–	–	–	190 nM	0.133 s⁻¹	702000 M⁻¹ s⁻¹	0.0783 s⁻¹	0.000736 s⁻¹
